Laboratory results reported in patent US20170058297A1.

Experiments:
[1] = molecular target: wild-type Cre recombinase (P1 Bacteriophage) (UniProt P06956); experiment: cell-based or functional assay
[2] = molecular target: Cre-B1 (P1 Bacteriophage) (UniProt P06956); experiment: cell-based or functional assay
[3] = molecular target: Cre-B2 (P1 Bacteriophage) (UniProt P06956); experiment: cell-based or functional assay
[4] = molecular target: Cre-A2 (P1 Bacteriophage) (UniProt P06956); experiment: cell-based or functional assay
Cre-B2 = molecular target: T1, Cre-B2
T1 chain: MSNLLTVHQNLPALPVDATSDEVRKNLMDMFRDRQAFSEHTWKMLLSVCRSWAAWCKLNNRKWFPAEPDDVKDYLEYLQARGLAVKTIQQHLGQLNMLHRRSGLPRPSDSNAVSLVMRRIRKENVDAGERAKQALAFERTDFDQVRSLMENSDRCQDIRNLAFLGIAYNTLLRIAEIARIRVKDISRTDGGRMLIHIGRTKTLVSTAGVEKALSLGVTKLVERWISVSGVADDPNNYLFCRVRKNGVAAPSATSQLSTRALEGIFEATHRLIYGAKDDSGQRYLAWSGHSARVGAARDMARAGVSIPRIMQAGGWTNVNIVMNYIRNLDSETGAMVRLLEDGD

In the case of “wild-type Cre recombinase (from UniProt P06956 1-343) (enzyme)”, the RFP positive cells of 7000 sorted, Ai14 mouse ES reporter cells, promoter hbb + cmv, replicate 1 [1] is reported as 3910 cells, the RFP positive cells of 7000 sorted, Ai14 mouse ES reporter cells, promoter hbb + cmv, replicate 2 [1] is reported as 4220 cells and the RFP positive cells of 7000 sorted, Ai14 mouse ES reporter cells, promoter hbb + cmv, replicate 3 [1] is reported as 4310 cells. It also gave an RFP positive cells of 7000 sorted, Ai14 mouse ES reporter cells, promoter hbb + sp1, replicate 1 [1] of 3820 cells, an RFP positive cells of 7000 sorted, Ai14 mouse ES reporter cells, promoter hbb + sp1, replicate 2 [1] of 3800 cells and an RFP positive cells of 7000 sorted, Ai14 mouse ES reporter cells, promoter hbb + sp1, replicate 3 [1] of 4020 cells. The RFP positive cells of 7000 sorted, Ai14 mouse ES reporter cells, promoter hbb, replicate 1 [1] was 372 cells, the RFP positive cells of 7000 sorted, Ai14 mouse ES reporter cells, promoter hbb, replicate 2 [1] was 391 cells and the RFP positive cells of 7000 sorted, Ai14 mouse ES reporter cells, promoter hbb, replicate 3 [1] was 408 cells.

B1: Cre mutant with only the round 2 mutation E308R (protein)
chain: MSNLLTVHQNLPALPVDATSDEVRKNLMDMFRDRQAFSEHTWKMLLSVCRSWAAWCKLNNRKWFPAEPEDVRDYLLYLQARGLAVKTIQQHLGQLNMLHRRSGLPRPSDSNAVSLVMRRIRKENVDAGERAKQALAFERTDFDQVRSLMENSDRCQDIRNLAFLGIAYNTLLRIAEIARIRVKDISRTDGGRMLIHIGRTKTLVSTAGVEKALSLGVTKLVERWISVSGVADDPNNYLFCRVRKNGVAAPSATSQLSTRALEGIFEATHRLIYGAKDDSGQRYLAWSGHSARVGAARDMARAGVSIPRIMQAGGWTNVNIVMNYIRNLDSETGAMVRLLEDGD
In the case of B1, the “recombinase activity in vitro” value is reported as “The salt-bridge swap from round 2 alone yields two Cre mutants with reduced but clear activity (data not shown)”.

B2: Cre-B1 (protein)
chain: MSNLLTVHQNLPALPVDATSDEVRKNLMDMFRDRQAFSEHTWKMLLSVCRSWAAWCKLNNRKWFPAEPDDVKDYLEYLQARGLAVKTIQQHLGQLNMLHRRSGLPRPSDSNAVSLVMRRIRKENVDAGERAKQALAFERTDFDQVRSLMENSDRCQDIRNLAFLGIAYNTLLRIAEIARIRVKDISRTDGGRMLIHIGRTKTLVSTAGVEKALSLGVTKLVERWISVSGVADDPNNYLFCRVRKNGVAAPSATSQLSTRALEGIFEATHRLIYGAKDDSGQRYLAWSGHSARVGAARDMARAGVSIPEIMQAGGWTNVNIVMNYIRNLDSETGAMVRLLEDGD
B2 gave an RFP positive cells of 7000 sorted, Ai14 mouse ES reporter cells, promoter hbb + cmv, replicate 1 [2] of 1240 cells, an RFP positive cells of 7000 sorted, Ai14 mouse ES reporter cells, promoter hbb + cmv, replicate 2 [2] of 1260 cells and an RFP positive cells of 7000 sorted, Ai14 mouse ES reporter cells, promoter hbb + cmv, replicate 3 [2] of 1120 cells. The RFP positive cells of 7000 sorted, Ai14 mouse ES reporter cells, promoter hbb + sp1, replicate 1 [2] was 1150 cells, the RFP positive cells of 7000 sorted, Ai14 mouse ES reporter cells, promoter hbb + sp1, replicate 2 [2] was 1080 cells and the RFP positive cells of 7000 sorted, Ai14 mouse ES reporter cells, promoter hbb + sp1, replicate 3 [2] was 1200 cells. It also gave an RFP positive cells of 7000 sorted, Ai14 mouse ES reporter cells, promoter hbb, replicate 1 [2] of 97 cells, an RFP positive cells of 7000 sorted, Ai14 mouse ES reporter cells, promoter hbb, replicate 2 [2] of 102 cells and an RFP positive cells of 7000 sorted, Ai14 mouse ES reporter cells, promoter hbb, replicate 3 [2] of 85 cells. The “recombinase activity in vitro (loxP excision, gel)” value was “All Cre-B mutants are inactive in isolation”.

B3: Cre-B2 (protein)
chain: MSNLLTVHQNLPALPVDATSDEVRKNLMDMFRDRQAFSEHTWKMLLSVCRSWAAWCKLNNRKWFPAEPDDVKDYLEYLQARGLAVKTIQQHLGQLNMLHRRSGLPRPSDSNAVSLVMRRIRKENVDAGERAKQALAFERTDFDQVRSLMENSDRCQDIRNLAFLGIAYNTLLRIAEIARIRVKDISRTDGGRMLIHIGRTKTLVSTAGVEKALSLGVTKLVERWISVSGVADDPNNYLFCRVRKNGVAAPSATSQLSTRALEGIFEATHRLIYGAKDDSGQRYLAWSGHSARVGAARDMARAGVSIPRIMQAGGWTNVNIVMNYIRNLDSETGAMVRLLEDGD
Molecule B3 has an RFP positive cells of 7000 sorted, Ai14 mouse ES reporter cells, promoter hbb + cmv, replicate 1 [3] of 2 cells, an RFP positive cells of 7000 sorted, Ai14 mouse ES reporter cells, promoter hbb + cmv, replicate 2 [3] of 2 cells and an RFP positive cells of 7000 sorted, Ai14 mouse ES reporter cells, promoter hbb + cmv, replicate 3 [3] of 4 cells. For the same molecule, the RFP positive cells of 7000 sorted, Ai14 mouse ES reporter cells, promoter hbb + sp1, replicate 1 [3] was 2 cells, the RFP positive cells of 7000 sorted, Ai14 mouse ES reporter cells, promoter hbb + sp1, replicate 2 [3] was 1 cells and the RFP positive cells of 7000 sorted, Ai14 mouse ES reporter cells, promoter hbb + sp1, replicate 3 [3] was 3 cells. The RFP positive cells of 7000 sorted, Ai14 mouse ES reporter cells, promoter hbb, replicate 1 [3] was 0 cells, the RFP positive cells of 7000 sorted, Ai14 mouse ES reporter cells, promoter hbb, replicate 2 [3] was 0 cells and the RFP positive cells of 7000 sorted, Ai14 mouse ES reporter cells, promoter hbb, replicate 3 [3] was 1 cells. For the same molecule, the “recombinase activity in vitro (loxP excision, gel)” value was “All Cre-B mutants are inactive in isolation”.

B4: Cre-A2 (protein)
chain: MSNLLTVHQNLPALPVDATSDEVRRNLMRMFELRRAFSEHTWKMLLSVCRSWAAWCKLNNRKWFPAEPEDVRDYLLYLQARGLAVKTIQQHLGQLNMLHRRSGLPRPSDSNAVSLVMRRIRKENVDAGERAKQALAFERTDFDQVRSLMENSDRCQDIRNLAFLGIAYNTLLRIAEIARIRVKDISRTDGGRMLIHIGRTKTLVSTAGVEKALSLGVTKLVERWISVSGVADDPNNYLFCRVRKNGVAAPSATSQLSTRALEGIFEATHRLIYGAKDDSGQRYLAWSGHSARVGAARDMARAGVSIPEIMQAGGWTNVNIVMNYIRNLDSETGAMVELLEDGD
Molecule B4 has an RFP positive cells of 7000 sorted, Ai14 mouse ES reporter cells, promoter hbb + cmv, replicate 1 [4] of 1130 cells, an RFP positive cells of 7000 sorted, Ai14 mouse ES reporter cells, promoter hbb + cmv, replicate 2 [4] of 1120 cells and an RFP positive cells of 7000 sorted, Ai14 mouse ES reporter cells, promoter hbb + cmv, replicate 3 [4] of 1050 cells. It also gave an RFP positive cells of 7000 sorted, Ai14 mouse ES reporter cells, promoter hbb + sp1, replicate 1 [4] of 1050 cells, an RFP positive cells of 7000 sorted, Ai14 mouse ES reporter cells, promoter hbb + sp1, replicate 2 [4] of 1000 cells and an RFP positive cells of 7000 sorted, Ai14 mouse ES reporter cells, promoter hbb + sp1, replicate 3 [4] of 1120 cells. It also gave an RFP positive cells of 7000 sorted, Ai14 mouse ES reporter cells, promoter hbb, replicate 1 [4] of 47 cells, an RFP positive cells of 7000 sorted, Ai14 mouse ES reporter cells, promoter hbb, replicate 2 [4] of 52 cells and an RFP positive cells of 7000 sorted, Ai14 mouse ES reporter cells, promoter hbb, replicate 3 [4] of 41 cells. It also gave an RFP positive cells of 7000 sorted, Ai14 mouse ES reporter cells, promoter hbb + cmv, replicate 1 [3] of 3180 cells, an RFP positive cells of 7000 sorted, Ai14 mouse ES reporter cells, promoter hbb + cmv, replicate 2 [3] of 3410 cells and an RFP positive cells of 7000 sorted, Ai14 mouse ES reporter cells, promoter hbb + cmv, replicate 3 [3] of 3700 cells. The RFP positive cells of 7000 sorted, Ai14 mouse ES reporter cells, promoter hbb + sp1, replicate 1 [3] was 3220 cells, the RFP positive cells of 7000 sorted, Ai14 mouse ES reporter cells, promoter hbb + sp1, replicate 2 [3] was 3340 cells and the RFP positive cells of 7000 sorted, Ai14 mouse ES reporter cells, promoter hbb + sp1, replicate 3 [3] was 3590 cells. For the same molecule, the RFP positive cells of 7000 sorted, Ai14 mouse ES reporter cells, promoter hbb, replicate 1 [3] was 573 cells, the RFP positive cells of 7000 sorted, Ai14 mouse ES reporter cells, promoter hbb, replicate 2 [3] was 528 cells and the RFP positive cells of 7000 sorted, Ai14 mouse ES reporter cells, promoter hbb, replicate 3 [3] was 607 cells. The “recombinase activity in vitro (loxP excision, gel)” value was “while its activity is reduced relative to Cre-A1, the Cre-A2 monomer was still capable of forming a functional homotetrameric complex” and the “recombinase activity in vitro (loxP excision, gel)” value (Cre-B2) was “the Cre-A2+Cre-B2 combination exhibited strong recombinase activity”.

B5: Cre mutant with only the round 2 mutation R337E (protein)
chain: MSNLLTVHQNLPALPVDATSDEVRKNLMDMFRDRQAFSEHTWKMLLSVCRSWAAWCKLNNRKWFPAEPEDVRDYLLYLQARGLAVKTIQQHLGQLNMLHRRSGLPRPSDSNAVSLVMRRIRKENVDAGERAKQALAFERTDFDQVRSLMENSDRCQDIRNLAFLGIAYNTLLRIAEIARIRVKDISRTDGGRMLIHIGRTKTLVSTAGVEKALSLGVTKLVERWISVSGVADDPNNYLFCRVRKNGVAAPSATSQLSTRALEGIFEATHRLIYGAKDDSGQRYLAWSGHSARVGAARDMARAGVSIPEIMQAGGWTNVNIVMNYIRNLDSETGAMVELLEDGD
For B5, the “recombinase activity in vitro” value was “The salt-bridge swap from round 2 alone yields two Cre mutants with reduced but clear activity (data not shown)”.
